Molecular target: T1, CD26 on Rv-CD26-transduced Jurkat T cells (human, UniProt P27487 1-766)
T1 construct: whole, on cells; also called membrane CD26
Experiment: ADA membrane binding efficiency from ADA activity left in medium after 24 h co-culture; Rv-ADA-CD3-293T/CD26-Jurkat T as maximum, 293T/Jurkat T without CD26 as background
Method: Next, we investigated the binding efficacy of ADA-CD3 on T cells. Jurkat-Dual (NF-KB &IRF/IFN), Jurkat-Dual transduced with Rv-CD26 (Jurkat-Dual-CD26), Jurkat-NFAT or Jurkat-NFAT transduced with Rv-CD26 (Jurkat-NFAT-CD26) reporter cell lines were co-cultured with Rv-ADA or Rv-ADA-CD3 (scFv) transduced 293 T cells for 24 hours. The cell culture medium was then used to measure ADA by ADA activity assay. ADA membrane binding efficiency was calculated using Rv-ADA-CD3-293T/CD26-Jurkat T as maximum and 293T/JurkatT W/O CD26 as background.

T1 sequence (P27487 whole entry): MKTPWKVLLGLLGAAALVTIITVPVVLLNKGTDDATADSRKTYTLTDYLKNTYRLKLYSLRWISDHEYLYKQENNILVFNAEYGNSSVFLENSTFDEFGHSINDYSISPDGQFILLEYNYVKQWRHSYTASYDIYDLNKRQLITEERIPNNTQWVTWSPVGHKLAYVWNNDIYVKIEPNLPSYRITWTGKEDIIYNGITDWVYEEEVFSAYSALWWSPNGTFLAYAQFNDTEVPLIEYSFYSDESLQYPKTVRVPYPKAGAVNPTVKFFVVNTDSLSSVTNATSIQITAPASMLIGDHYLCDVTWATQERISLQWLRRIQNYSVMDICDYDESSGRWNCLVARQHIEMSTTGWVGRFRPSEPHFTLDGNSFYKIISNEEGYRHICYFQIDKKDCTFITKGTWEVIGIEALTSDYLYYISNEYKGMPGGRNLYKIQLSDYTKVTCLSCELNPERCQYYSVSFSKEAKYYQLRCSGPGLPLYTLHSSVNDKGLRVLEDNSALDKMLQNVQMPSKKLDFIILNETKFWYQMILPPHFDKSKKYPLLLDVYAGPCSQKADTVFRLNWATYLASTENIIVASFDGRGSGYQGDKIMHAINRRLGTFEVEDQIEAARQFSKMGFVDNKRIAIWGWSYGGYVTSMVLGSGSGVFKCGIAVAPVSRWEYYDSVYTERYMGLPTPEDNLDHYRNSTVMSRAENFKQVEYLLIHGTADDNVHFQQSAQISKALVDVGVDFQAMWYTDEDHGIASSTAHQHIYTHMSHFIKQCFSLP

B1: secreted ADA (without CD3-scFv) (enzyme, human, UniProt P00813 1-363, looked up)
chain: MAQTPAFDKPKVELHVHLDGSIKPETILYYGRRRGIALPANTAEGLLNVIGMDKPLTLPDFLAKFDYYMPAIAGCREAIKRIAYEFVEMKAKEGVVYVEVRYSPHLLANSKVEPIPWNQAEGDLTPDEVVALVGQGLQEGERDFGVKARSILCCMRHQPNWSPKVVELCKKYQQQTVVAIDLAGDETIPGSSLLPGHVQAYQEAVKSGIHRTVHAGEVGSAEVVKEAVDILKTERLGHGYHTLEDQALYNRLRQENMHFEICPWSSYLTGAWKPDTEHAVIRLKNDQANYSLNTDDPLIFKSTLDTDYQMTKRDMGFTEEEFKRLNINAAKSSFLPEDEKRELLDLLYKAYGMPPSASAGQNL
notes: Secreted by Rv-ADA transduced 293 T cells in co-culture; also called ADA1; Rv-ADA
With B1 the “ADA membrane binding efficiency (relative to secreted ADA-CD3)” value was 40%.

Source: patent publication US20240350546A1 (TEXAS A AND M UNIVERSITY SYSTEM, published 2024)
